Assay [1] has as its target total gliadin fraction (Triticum aestivum). In words: turbidimetry.
Assay [2] has the same target. As to the kind of experiment: turbidimetry. The source holds these as a separate data set.
Assay [3] addresses α-gliadin (Triticum aestivum). As to the kind of experiment: SPR. On the technique in general: Surface plasmon resonance follows binding to a sensor surface in real time, without labels.
For assay [4], the target named is γ-gliadin (Triticum aestivum) (UniProt P08453). As to the kind of experiment: SPR.
γ-gliadin (Triticum aestivum), sequence (P08453 20-327): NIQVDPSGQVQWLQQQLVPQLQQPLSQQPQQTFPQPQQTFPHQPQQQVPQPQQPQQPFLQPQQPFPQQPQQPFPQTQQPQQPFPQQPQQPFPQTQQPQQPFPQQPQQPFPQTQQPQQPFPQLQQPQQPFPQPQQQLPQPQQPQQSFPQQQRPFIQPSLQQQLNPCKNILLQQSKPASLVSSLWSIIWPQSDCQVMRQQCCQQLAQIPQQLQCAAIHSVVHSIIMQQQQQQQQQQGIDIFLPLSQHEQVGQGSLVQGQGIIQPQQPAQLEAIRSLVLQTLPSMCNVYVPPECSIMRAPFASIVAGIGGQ
For assay [5], the target named is total gliadin fraction (Triticum aestivum). As to the kind of experiment: turbidimetry. This is another data set of the same source.

By Kd is commonly meant the concentration at which binding is half-saturated.

Like-named read-outs stand apart in the source and are kept apart here.

B1: puroindoline A (natural protein)
chain: DVAGGGGAQQCPVETKLNSCRNYLLDRCSTMKDFPVTWRWWKWWKGGCQELLGECCSRLGQMPPQCRCNIIQGSIQGDLGGIFGFQRDRASKVIQEAKNLPPRCNQGPPCNIPGTIGYYW
In the case of B1, the dissociation constant Kd in assay [1] was 600 nM; in assay [2] it was 400 nM; in assay [3], 4450 nM; in assay [4], 630 nM; in assay [5], 1000 nM. Further, the response at equilibrium at 2.5 µM PINA in assay [3] came to 160 RU; in assay [4], 34 RU.

(Values after paper doi:10.1101/830265.)
